# From patent publication US20140120095A1 (Boehringer Ingelheim, published 2014)
# T1: VEGFC (UniProt P49767 103-227, limits assumed)
# T1 sequence (looked up): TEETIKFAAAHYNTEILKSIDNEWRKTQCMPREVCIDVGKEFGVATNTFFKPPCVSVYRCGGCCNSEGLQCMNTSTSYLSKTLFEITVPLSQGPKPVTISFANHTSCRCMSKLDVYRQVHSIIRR
# Biological target: T1, VEGFC
# Test: binding ELISA on coated VEGFC (Example 12.8), receptor positive control, OD 450 nm
# Protocol: Binding to VEGFB, VEGFC, VEGFD and PIGF is assessed via a solid phase binding ELISA. […] Wells are blocked with a casein solution (1% in PBS). […] As positive controls serial dilutions of the appropriate receptors are taken along and detected with horseradish peroxidase (HRP)-conjugated goat anti-human IgG, Fc specific antibody (Jackson Immuno Research Laboratories Inc., West Grove, Pa., USA) and a subsequent enzymatic reaction in the presence of the substrate TMB (3,3′,5,5′-tetramentylbenzidine) (Pierce, Rockford, Ill., USA).
binder,measurement,value
"human VEGFR2-Fc chimera (Fc fusion, UniProt P35968 20-764, looked up, also called hVEGFR2-Fc; VEGFR2-huFc; not shown: human Fc part of the bought chimera; not described) ASVGLPSVSLDLPRLSIQKDILTIKANTTLQITCRGQRDLDWLWPNNQSGSEQRVEVTECSDGLFCKTLTIPKVIGNDTGAYKCFYRETDLASVIYVYVQDYRSPFIASVSDQHGVVYITENKNKTVVIPCLGSISNLNVSLCARYPEKRFVPDGNRISWDSKKGFTIPSYMISYAGMVFCEAKINDESYQSIMYIVVVVGYRIYDVVLSPSHGIELSVGEKLVLNCTARTELNVGIDFNWEYPSSKHQHKKLVNRDLKTQSGSEMKKFLSTLTIDGVTRSDQGLYTCAASSGLMTKKNSTFVRVHEKPFVAFGSGMESLVEATVGERVRIPAKYLGYPPPEIKWYKNGIPLESNHTIKAGHVLTIMEVSERDTGNYTVILTNPISKEKQSHVVSLVVYVPPQIGEKSLISPVDSYQYGTTQTLTCTVYAIPPPHHIHWYWQLEEECANEPSQAVSVTNPYPCEEWRSVEDFQGGNKIEVNKNQFALIEGKNKTVSTLVIQAANVSALYKCEAVNKVGRGERVISFHVTRGPEITLQPDMQPTEQESVSLWCTADRSTFENLTWYKLGPQPLPIHVGELPTPVCKNLDTLWKLNATMFSNSTNDILIMELKNASLQDQGDYVCLAQDRKTKKRHCVVRQLTVLERVAPTITGNLENQTTSIGESIEVSCTASGNPPPQIMWFKDNETLVEDSGIVLKDGNRNLTIRRVRKEDEGLYTCQACSVLGCAKVEAFFIIEGAQEKTNLE",EC50 (read off the curve),~4 nM
